Test results from paper PMC6019071.

Key:
[1] = target: core CoREST complex LSD1/HDAC1/CoREST1 (LHC) (UniProt O60341); experiment: enzyme inhibition (fluorogenic HDAC deacetylation assay); Dixon plot of LHC inhibition by H3K14Hd-modified nucleosomes versus peptide substrate
[2] = target: core CoREST complex LSD1/HDAC1/CoREST1 (LHC) (UniProt O60341); experiment: enzyme inhibition (fluorogenic HDAC deacetylation assay); LHC (1 nM) pretreated 30 min on ice with inhibitor in 50 mM HEPES 7.5, 100 mM KCl, 100 uM InsP6, 0.2 mg/mL BSA; 50 uM fluorogenic peptide substrate, 37 C, 15 min; Ki = IC50/([S]/Km + 1), competitive model

Ki [1] [nM]	Ki [2] [nM]	fold lower Ki than the corresponding Hd nucleosome [2] [fold]	Substance
35	40	–	H3K14Hd containing nucleosome (146 bp mononucleosome with semisynthetic H3K4me2K14Hd) (complex)
–	60	–	H3K9Hd containing nucleosome (146 bp mononucleosome with semisynthetic H3K4me2K9Hd) (complex)
–	–	30	H3K4me2K14Hd(1-34) synthetic H3 peptide (from UniProt P84233 2-35)
–	–	30	H3K4me2K9Hd(1-34) synthetic H3 peptide (from UniProt P84233 2-35)
–	–	30	semisynthetic histone H3 H3K4me2K14Hd (from UniProt P84233 2-136) (natural protein)
